# Experimental data as given in the supplement of paper PMC10065799, “High-throughput profiling of sequence recognition by tyrosine kinases and SH2 domains using bacterial peptide display” (eLife, 2023).
# What was measured:
# FGFR3 = FGFR3 (UniProt P22607); assay: phosphorylation enrichment, bacterial display (enrichment ratio); higher = better substrate or ligand; peptides without Tyr show the background
# Hck = Hck (UniProt P08631); assay: as above
# EPHB1 = EPHB1 (UniProt P54762); assay: as above
# Jak2 = Jak2 (UniProt O60674); assay: as above
# Fes = Fes (UniProt P07332); assay: as above
# Fyn = Fyn (UniProt P06241); assay: as above
# AncSZ = assay: as above
# c-Abl (mouse) = assay: as above
# c-Src = assay: as above
# FGFR1 = FGFR1 (UniProt P11362); assay: as above
# EPHB2 = EPHB2 (UniProt P29323); assay: as above
# MERTK = MERTK (UniProt Q12866); assay: as above
# Fer (mouse) = assay: as above
# Grb2 SH2 = Grb2 SH2 (UniProt P62993); assay: SH2 binding enrichment of the phosphorylated peptide, bacterial display (enrichment ratio); higher = better substrate or ligand; peptides without Tyr show the background
# c-Src SH2 = assay: as above
# SHP2-C SH2 = assay: as above
# 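Throughout, for SH2 binding enrichment of the phosphorylated peptide, bacterial display: peptide library displayed on the E. coli surface as eCPX fusions, selected cells deep-sequenced, score is each peptide's frequency after selection divided by its frequency in the input.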
# 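Throughout, for phosphorylation enrichment, bacterial display: 11-residue human phosphosite peptides and single-mutation variants displayed on the E. coli surface, counted by deep sequencing, each peptide's frequency after selection divided by its frequency in the unselected input library; frequency after pTyr selection over input frequency; kinase dosed for 20-30% of maximal phosphorylation in three min.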
# EPHB1, sequence (P54762 whole entry, looked up): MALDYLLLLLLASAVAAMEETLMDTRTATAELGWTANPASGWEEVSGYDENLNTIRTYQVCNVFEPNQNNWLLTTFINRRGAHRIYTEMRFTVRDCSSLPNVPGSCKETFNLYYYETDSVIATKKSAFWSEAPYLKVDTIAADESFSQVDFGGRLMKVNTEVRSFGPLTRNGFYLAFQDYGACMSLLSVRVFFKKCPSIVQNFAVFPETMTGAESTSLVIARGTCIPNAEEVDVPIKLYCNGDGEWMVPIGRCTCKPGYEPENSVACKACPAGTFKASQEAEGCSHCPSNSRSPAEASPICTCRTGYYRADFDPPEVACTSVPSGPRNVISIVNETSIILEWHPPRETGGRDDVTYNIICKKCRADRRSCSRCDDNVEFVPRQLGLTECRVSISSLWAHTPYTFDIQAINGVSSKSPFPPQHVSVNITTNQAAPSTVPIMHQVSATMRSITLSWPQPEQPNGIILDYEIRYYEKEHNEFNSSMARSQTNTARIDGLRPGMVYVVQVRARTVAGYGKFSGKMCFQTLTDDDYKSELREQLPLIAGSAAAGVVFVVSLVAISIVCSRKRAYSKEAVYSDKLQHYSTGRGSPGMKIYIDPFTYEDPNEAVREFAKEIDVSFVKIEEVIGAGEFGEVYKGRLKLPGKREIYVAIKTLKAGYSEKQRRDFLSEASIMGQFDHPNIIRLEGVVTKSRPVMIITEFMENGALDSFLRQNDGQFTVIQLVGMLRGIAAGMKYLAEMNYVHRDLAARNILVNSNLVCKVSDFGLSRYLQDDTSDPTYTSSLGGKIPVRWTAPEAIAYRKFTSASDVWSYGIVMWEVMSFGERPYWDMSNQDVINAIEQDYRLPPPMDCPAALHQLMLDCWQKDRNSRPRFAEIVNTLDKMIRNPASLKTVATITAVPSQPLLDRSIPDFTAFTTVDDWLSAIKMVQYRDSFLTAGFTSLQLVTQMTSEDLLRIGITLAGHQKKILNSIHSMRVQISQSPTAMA
# Fes, sequence (P07332 whole entry, looked up): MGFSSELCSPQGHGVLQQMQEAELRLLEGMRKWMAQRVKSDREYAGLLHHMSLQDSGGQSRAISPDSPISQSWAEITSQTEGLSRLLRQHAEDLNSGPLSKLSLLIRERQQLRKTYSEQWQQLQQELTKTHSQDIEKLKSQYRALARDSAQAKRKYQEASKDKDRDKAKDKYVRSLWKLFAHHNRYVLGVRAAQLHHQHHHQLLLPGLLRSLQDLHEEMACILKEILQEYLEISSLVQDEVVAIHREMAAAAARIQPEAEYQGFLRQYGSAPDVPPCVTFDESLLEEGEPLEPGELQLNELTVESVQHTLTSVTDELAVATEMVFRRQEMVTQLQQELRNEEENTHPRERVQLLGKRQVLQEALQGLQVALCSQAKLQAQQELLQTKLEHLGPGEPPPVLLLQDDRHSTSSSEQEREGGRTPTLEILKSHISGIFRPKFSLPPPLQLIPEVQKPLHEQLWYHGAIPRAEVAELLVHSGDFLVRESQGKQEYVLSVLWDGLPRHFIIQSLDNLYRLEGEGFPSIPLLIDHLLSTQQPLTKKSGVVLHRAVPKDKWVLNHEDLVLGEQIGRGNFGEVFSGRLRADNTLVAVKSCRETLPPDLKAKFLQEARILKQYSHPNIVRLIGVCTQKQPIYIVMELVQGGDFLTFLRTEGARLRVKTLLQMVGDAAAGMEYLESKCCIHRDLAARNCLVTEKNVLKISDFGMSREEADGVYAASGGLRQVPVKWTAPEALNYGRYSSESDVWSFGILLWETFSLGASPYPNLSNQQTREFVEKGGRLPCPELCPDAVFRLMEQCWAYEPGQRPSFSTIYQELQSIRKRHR
# Grb2 SH2, sequence (P62993 whole entry, looked up): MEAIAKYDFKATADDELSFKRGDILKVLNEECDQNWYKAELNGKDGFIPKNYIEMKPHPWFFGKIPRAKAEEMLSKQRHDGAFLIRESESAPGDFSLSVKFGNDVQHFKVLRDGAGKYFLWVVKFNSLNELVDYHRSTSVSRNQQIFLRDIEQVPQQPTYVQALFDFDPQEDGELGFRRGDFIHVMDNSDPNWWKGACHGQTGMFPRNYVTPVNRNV
# FGFR1, sequence (P11362 whole entry, looked up): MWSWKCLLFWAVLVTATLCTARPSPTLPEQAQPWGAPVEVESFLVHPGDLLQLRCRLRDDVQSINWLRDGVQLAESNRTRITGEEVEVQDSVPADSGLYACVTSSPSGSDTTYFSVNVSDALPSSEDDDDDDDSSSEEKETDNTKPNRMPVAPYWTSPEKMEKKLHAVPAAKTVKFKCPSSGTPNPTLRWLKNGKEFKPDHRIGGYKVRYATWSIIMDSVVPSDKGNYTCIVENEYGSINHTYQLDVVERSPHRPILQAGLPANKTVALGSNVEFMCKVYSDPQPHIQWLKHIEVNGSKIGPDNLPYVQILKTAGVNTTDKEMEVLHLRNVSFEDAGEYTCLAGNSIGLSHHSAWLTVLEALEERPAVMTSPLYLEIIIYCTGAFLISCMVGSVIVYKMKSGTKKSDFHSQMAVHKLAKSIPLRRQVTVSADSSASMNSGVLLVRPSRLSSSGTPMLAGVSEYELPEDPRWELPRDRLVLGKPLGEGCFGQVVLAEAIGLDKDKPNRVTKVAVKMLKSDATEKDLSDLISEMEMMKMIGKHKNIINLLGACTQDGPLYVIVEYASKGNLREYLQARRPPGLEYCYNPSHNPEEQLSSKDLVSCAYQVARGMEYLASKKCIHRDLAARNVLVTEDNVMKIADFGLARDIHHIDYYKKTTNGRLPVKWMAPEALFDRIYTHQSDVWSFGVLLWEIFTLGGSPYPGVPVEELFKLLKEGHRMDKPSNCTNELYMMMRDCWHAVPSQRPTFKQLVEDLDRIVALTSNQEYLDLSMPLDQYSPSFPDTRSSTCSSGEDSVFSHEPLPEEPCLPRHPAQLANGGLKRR
# EPHB2, sequence (P29323 whole entry, looked up): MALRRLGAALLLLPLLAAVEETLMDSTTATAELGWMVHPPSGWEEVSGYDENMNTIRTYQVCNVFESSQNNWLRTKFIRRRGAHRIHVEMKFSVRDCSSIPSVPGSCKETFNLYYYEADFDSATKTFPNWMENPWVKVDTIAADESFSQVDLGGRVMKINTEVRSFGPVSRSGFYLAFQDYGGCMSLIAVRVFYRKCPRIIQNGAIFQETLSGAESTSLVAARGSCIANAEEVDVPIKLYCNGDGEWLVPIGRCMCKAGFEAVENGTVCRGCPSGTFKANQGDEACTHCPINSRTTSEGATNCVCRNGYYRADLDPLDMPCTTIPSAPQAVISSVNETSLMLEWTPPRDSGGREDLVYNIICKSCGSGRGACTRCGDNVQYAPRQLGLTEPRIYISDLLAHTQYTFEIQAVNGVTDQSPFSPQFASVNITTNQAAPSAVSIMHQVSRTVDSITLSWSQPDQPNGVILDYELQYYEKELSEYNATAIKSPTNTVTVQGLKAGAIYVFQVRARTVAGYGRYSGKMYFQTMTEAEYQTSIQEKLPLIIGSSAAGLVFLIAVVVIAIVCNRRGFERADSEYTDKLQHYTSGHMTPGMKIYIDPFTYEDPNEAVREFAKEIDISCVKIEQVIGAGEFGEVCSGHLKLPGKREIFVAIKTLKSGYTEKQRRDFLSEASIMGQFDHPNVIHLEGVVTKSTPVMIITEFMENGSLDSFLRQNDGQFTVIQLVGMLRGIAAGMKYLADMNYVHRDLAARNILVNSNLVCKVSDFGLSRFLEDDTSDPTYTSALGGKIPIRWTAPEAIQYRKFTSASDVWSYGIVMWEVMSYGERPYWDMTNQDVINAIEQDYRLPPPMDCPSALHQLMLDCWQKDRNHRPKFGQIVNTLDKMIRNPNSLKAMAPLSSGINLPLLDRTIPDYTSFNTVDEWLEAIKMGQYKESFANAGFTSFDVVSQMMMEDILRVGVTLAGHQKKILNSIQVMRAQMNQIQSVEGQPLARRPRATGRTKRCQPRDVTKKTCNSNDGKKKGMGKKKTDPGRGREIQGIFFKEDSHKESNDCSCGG
# Jak2, sequence (O60674 whole entry, looked up): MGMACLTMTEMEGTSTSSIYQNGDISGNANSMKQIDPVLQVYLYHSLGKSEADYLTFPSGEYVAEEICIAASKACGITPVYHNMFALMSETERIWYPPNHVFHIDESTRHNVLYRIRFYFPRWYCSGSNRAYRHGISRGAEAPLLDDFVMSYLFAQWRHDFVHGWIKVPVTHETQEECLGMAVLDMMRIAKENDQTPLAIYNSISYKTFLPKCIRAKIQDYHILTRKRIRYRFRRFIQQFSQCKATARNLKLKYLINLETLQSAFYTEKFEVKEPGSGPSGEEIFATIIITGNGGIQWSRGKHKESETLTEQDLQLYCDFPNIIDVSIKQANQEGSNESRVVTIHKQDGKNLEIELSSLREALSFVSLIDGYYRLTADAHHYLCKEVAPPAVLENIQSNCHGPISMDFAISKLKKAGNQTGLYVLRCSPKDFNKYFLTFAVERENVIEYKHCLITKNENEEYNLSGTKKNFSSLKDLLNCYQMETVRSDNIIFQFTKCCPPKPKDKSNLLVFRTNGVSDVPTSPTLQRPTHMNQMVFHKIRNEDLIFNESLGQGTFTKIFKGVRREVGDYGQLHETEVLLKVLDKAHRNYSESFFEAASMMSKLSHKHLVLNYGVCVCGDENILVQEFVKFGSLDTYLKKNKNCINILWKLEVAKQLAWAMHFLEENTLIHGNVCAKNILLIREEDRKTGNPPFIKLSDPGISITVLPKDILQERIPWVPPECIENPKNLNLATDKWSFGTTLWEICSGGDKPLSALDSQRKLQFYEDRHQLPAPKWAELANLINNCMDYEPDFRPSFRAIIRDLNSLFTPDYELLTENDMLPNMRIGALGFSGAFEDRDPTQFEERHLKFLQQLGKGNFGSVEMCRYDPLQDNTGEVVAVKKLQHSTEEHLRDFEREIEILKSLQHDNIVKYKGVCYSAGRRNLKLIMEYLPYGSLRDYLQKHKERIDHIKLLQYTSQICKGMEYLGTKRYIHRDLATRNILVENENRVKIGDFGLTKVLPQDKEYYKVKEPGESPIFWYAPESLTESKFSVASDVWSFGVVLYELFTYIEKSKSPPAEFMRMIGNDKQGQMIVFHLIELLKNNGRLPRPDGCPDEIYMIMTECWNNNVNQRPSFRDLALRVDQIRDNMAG
Sequence,phosphorylation enrichment (FGFR3),phosphorylation enrichment (Hck),phosphorylation enrichment (EPHB1),phosphorylation enrichment (Jak2),phosphorylation enrichment (Fes),phosphorylation enrichment (Fyn),phosphorylation enrichment (AncSZ),phosphorylation enrichment (c-Abl (mouse)),phosphorylation enrichment (c-Src),phosphorylation enrichment (FGFR1),phosphorylation enrichment (EPHB2),phosphorylation enrichment (MERTK),phosphorylation enrichment (Fer (mouse)),SH2 binding enrichment (Grb2 SH2),SH2 binding enrichment (c-Src SH2),SH2 binding enrichment (SHP2-C SH2)
TSYSGYRCHRH [NKAPL_Y94_Y96C],0.584,0.5,0.386,0.678,0.695,0.352,0.694,0.528,0.433,0.63,0.477,0.509,0.31,0.939,0.732,0.635
TTTQAYRVDER [PRKN_Y391],0.512,0.446,0.473,0.57,0.758,0.482,0.709,0.714,0.389,0.446,0.439,0.404,0.479,0.921,0.465,0.597
TVDASYCGGRG [ANTXR2_Y380_Y381C],0.437,0.436,0.393,0.558,0.695,0.383,0.558,0.465,0.351,0.496,0.516,0.452,0.402,0.757,0.567,0.914
TVLEHYRRTHC [MYBPC3_Y1119],0.519,0.5,0.468,0.606,0.672,0.52,0.526,0.532,0.395,0.438,0.681,0.569,0.408,1.05,0.713,1.16
TVLEPYADPFF [ZC3H18_Y367_YF],0.611,0.65,0.432,0.906,0.879,0.526,1.16,0.565,0.517,0.753,0.5,0.408,0.536,0.779,1.32,0.673
TVSSDYLHPQY [CCPG1_Y569_F566S],0.54,0.407,0.43,0.536,0.681,0.365,1.28,0.521,0.355,0.528,0.531,0.315,0.442,1.21,0.762,0.88
TWSRSYRSDRL [CRYBB1_Y131_S129R],0.494,0.614,0.445,0.778,0.715,0.453,0.676,0.586,0.545,0.607,0.51,0.518,0.452,0.636,0.38,0.354
TYGVAYRAKDK [CDK11B_Y453_V452A],0.537,1.15,0.357,0.578,0.807,0.812,0.712,0.567,0.829,0.791,0.592,0.621,0.38,0.881,0.48,0.882
TYQYKYPEGSS [TGM4_Y440_E437Q],0.63,0.455,0.548,0.743,0.905,0.567,0.85,0.691,0.494,0.425,0.56,0.429,0.509,0.834,0.631,0.586
VAMELYVFRGV [GAN_Y471_G474R],0.807,0.651,0.707,1.09,1.29,0.503,1.16,0.935,0.615,0.553,0.841,0.684,0.501,0.836,0.548,0.567
VATRWYRSLEL [CDKL5_Y177_P180L],0.473,0.432,0.447,0.576,0.742,0.385,0.825,0.468,0.314,0.436,0.368,0.366,0.357,0.717,0.373,0.551
VAVVDYVEPSP [TXNRD2_Y70],0.683,0.454,0.561,0.912,0.974,0.53,1.35,0.627,0.416,0.603,0.776,0.415,0.52,0.792,0.446,0.696
VCHELYNTIRD [PBRM1_Y54],0.683,3.01,0.546,0.761,0.975,0.718,0.898,0.978,1.38,0.489,0.608,0.448,0.683,0.766,3.75,0.805
VDHFGYNKDDK [APOB_Y740_T741N],0.493,0.436,0.427,1.1,0.874,0.485,1.02,0.974,0.485,0.465,0.528,0.434,0.398,0.665,0.465,0.595
VFLARYGPAWR [CYP2D6_Y124],0.501,0.548,0.405,0.793,1.21,0.434,1.12,0.52,0.603,0.468,0.598,0.472,0.413,0.948,0.572,0.703
VFSTDCFRVGG [NTRK2_Y706_Y706C_YF],0.602,0.685,0.588,1.07,0.971,0.945,1.02,1.04,0.44,0.565,0.462,0.549,0.761,0.87,0.816,1.13
VGNAAYQAGSL [STK36_Y1181_P1185S],0.446,0.37,0.437,0.466,0.598,0.401,0.565,0.448,0.361,0.552,0.37,0.312,0.436,0.668,0.356,0.705

Sequence,phosphorylation enrichment (FGFR3),phosphorylation enrichment (Hck),phosphorylation enrichment (EPHB1),phosphorylation enrichment (Jak2),phosphorylation enrichment (Fes),phosphorylation enrichment (Fyn),phosphorylation enrichment (AncSZ),phosphorylation enrichment (c-Abl (mouse)),phosphorylation enrichment (c-Src),phosphorylation enrichment (FGFR1),phosphorylation enrichment (EPHB2),phosphorylation enrichment (MERTK),phosphorylation enrichment (Fer (mouse)),SH2 binding enrichment (Grb2 SH2),SH2 binding enrichment (c-Src SH2),SH2 binding enrichment (SHP2-C SH2)
VGSEDYGWDLT [SPTAN1_Y1792_R1794W],0.726,0.443,0.602,0.967,1.16,0.384,1.2,0.724,0.419,0.489,0.732,0.36,0.463,0.824,0.515,0.852
VHSGTYQVMVR [MYBPC3_Y1043_T1046M],0.468,1.98,2.04,0.467,0.637,0.539,0.711,0.489,0.988,0.456,0.648,1.27,0.343,0.94,1.56,0.628
VIECSYTSADG [DHCR7_Y382],0.623,0.471,0.524,0.934,1.39,0.478,1.02,0.825,0.556,0.544,0.538,0.423,0.496,0.837,1.63,0.601
VITDYYVDMKF [MPP4_Y567],5.31,0.929,3.65,2.25,1.23,0.881,1.61,1.18,0.88,7.13,1.98,1.15,1.4,0.993,1.31,0.6
VKANTYEKFWL [GATM_Y100_P105L_YF],0.722,0.684,0.562,0.821,1.07,0.803,0.887,0.672,1.11,0.382,0.545,1.19,2.9,0.819,0.794,0.807
VKMLEYRGKDV [CASP5_Y74_L75R],0.473,0.46,0.459,0.792,0.737,0.476,0.68,0.523,0.465,0.489,0.416,0.443,0.495,0.618,0.386,0.628
VLAHKYHGGGG [HBB_Y146_A141V],0.352,0.405,0.354,0.434,0.498,0.366,0.376,0.405,0.363,0.349,0.362,0.352,0.366,0.939,0.464,0.852
VLNHAYENLTR [SYNE2_Y3255_D3253H],0.625,0.383,0.366,0.507,0.579,0.33,0.565,0.5,0.405,0.494,0.4,0.303,0.417,26.7,10.5,1.89
VLTSTYRGGGG [HBA1_Y141_K140T],0.483,0.377,0.315,0.509,0.628,0.38,0.575,0.425,0.394,0.361,0.376,0.367,0.385,0.84,0.452,0.645
VNNLVYENING [FRS2_Y306_K303N],0.576,7.03,11.8,0.571,2.21,6.01,1.17,0.703,5.42,0.57,4.94,5.31,11.8,5.57,2.29,1.35
VPHECYAKVFD [ALB_Y394_D389V],0.727,0.572,0.647,0.928,1.22,0.564,1.07,0.945,0.561,0.619,0.716,0.497,0.542,0.887,2.33,1.55
VPLATYMRIYK [RPL21_Y30],0.687,0.477,0.511,1.01,0.958,0.454,0.887,0.591,0.429,0.526,0.492,0.412,0.517,0.668,0.534,0.55
VPVPGYTKVPE [SPRR3_Y146_L149V],0.789,0.526,0.365,0.769,0.75,0.494,0.776,0.615,0.398,0.437,0.541,0.501,0.525,0.81,0.56,0.581
VQNIVYRTASI [CYP39A1_Y102],0.442,0.36,0.335,0.581,0.619,0.382,0.706,0.467,0.356,0.414,0.396,0.334,0.34,0.689,0.447,0.889
VQVAFYTMMMN [SPATA17_Y84_YF],1.99,0.769,1.3,1.6,1.51,0.652,1.63,1.03,0.956,1.84,1.15,3.02,1.81,0.816,0.721,0.814
VREIRCQGGNR [VWF_Y1570_Y1570C],0.419,0.465,0.416,0.771,0.682,0.401,0.648,0.675,0.5,0.478,0.432,0.406,0.296,0.963,0.477,0.591
